# In patent US20210300999A1 (VANDERBILT UNIVERSITY, published 2021):
# Substitutions are numbered along the chain they refer to.
# B1: COV2-3025 (antibody, V domains shown)
# VH: EVQLVQSGPEVKKPGTSVKVSCKASGFTFMSSAVQWVRQARGQRLEWIGWIVIGSGNTNYAQKFQERVTITRDMSTSTAYMELSSLRSEDTAVYYCAAPYCSSISCNDGFDIWGQGTMVTVSS
# VL: EIVLTQSPGTLSLSPGERVTLSCRASQSVSSSYLAWYQQKPGQAPRLLIYGASSRATGIPDRFSGSGSGTDFTLTISRLEPEDFAVYYCQHYGSSRGWTFGQGTKVEIK
# B2: COV2-2094 (antibody, V domains shown)
# VH: EVQLVESGGGVVRPGGSLRLSCAASGFIFDDYDMTWVRQAPGKGLEWVSGINWNGGSTGYADSVKGRFTISRDNAKNSLYLQMNSLRAEDTALYHCAVIMSPIPRYSGYDWAGDAFDIWGQGTMVTVSS
# VL: SSELTQDPAVSVALGQTVRITCQGDSLRSYYASWYQQKPGQVPILVIYDKNNRPSGIPDRFSGSSSGNTASLTITGAQAEDEADYYCNSRDSSGNAVVFGGGTKLTVL
# B3: COV2-2096 (antibody, V domains shown)
# VH: QVQLVQSGAEVKKPGASVKVSCKASGYTFGSFDINWVRQATGQGLEWMGRMNSNSGNTAYAQKFQGRVTMTRDTSTNTAYMELSSLRSEDTAMYYCARMRSGWPTHGRPDDFWGRGTLVTVSS
# VL: QSVLTQAPSASGTPGQRVTISCSGSNSNIGSYTINWYQQLPGTAPKLLIYGNDQRTSGVPDRFSGSKFGTSASLAISGLQSEDENNYYCAVWDDSLNGLVFGGGTKLTVL
# B4: COV2-2165 (antibody, V domains shown)
# VH: EVQLVESGGGLVQPGGSLRLSCAASGLTVRSNYMTWVRQTPGKGLEWVSVIYSGGSTFYADSVKGRFTISRDNSKNTVYLQMNSLRAEDTAVYYCARDLVTYGLDVWGQGTTVTVSS
# VL: DIQLTQSPSFLSASVGDRVTITCRASQGISNYLAWYQQKPGTAPNLLIYAASTLQSGVPSRFSGSGSGTEFTLTISSLQPEDFATYYCQLLNSHPLTFGQGTRLEIK
# B5: COV2-2196 (antibody, V domains shown)
# VH: B1 VH with E1Q, V2M
# VL: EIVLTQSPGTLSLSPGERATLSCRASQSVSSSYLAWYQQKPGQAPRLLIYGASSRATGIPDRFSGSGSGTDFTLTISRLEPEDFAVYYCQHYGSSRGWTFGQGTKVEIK
# notes: also called mAb COV2-2196
# B6: COV2-2391 (antibody, V domains shown)
# VH: B3 VH
# VL: B3 VL
# B7: COV2-2952 (antibody, V domains shown)
# VH: B4 VH
# VL: B4 VL
# B8: COV2-2838 (antibody, V domains shown)
# VH: B1 VH with E1Q, V2M
# VL: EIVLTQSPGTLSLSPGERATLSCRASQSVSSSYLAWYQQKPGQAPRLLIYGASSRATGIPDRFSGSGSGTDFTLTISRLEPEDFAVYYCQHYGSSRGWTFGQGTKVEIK
# B9: COV2-2514 (antibody, V domains shown)
# VH: B2 VH
# VL: B2 VL
# Molecular target: T1, SARS-CoV-2 S receptor-binding domain (SRBD), residues 319-541 (SARS-CoV-2, UniProt P0DTC2 319-541)
# T1 construct: range 319-541
# Experiment: ELISA on coated antigen
row,Binder,EC50 [µg/mL]
1,B1,0.0011
2,B2,0.0014

# Molecular target: T2, SARS-CoV-2 spike (S) glycoprotein on virus (neutralization assays) (SARS-CoV-2, UniProt P0DTC2 14-1273)
# Experiment: cell-based or functional assay
row,Binder,"Neutralization IC50, ng/mL (FRNT, authentic SARS-CoV-2) [ng/mL]"
1,B3,59
2,B4,332
3,B5,15
4,B1,37
5,B2,154

# Molecular target: T3, SARS-CoV-2 NTD (Table A) (SARS-CoV-2, UniProt P0DTC2 14-305)
# T3 construct: domain: NTD
# Experiment: ELISA, purified IgG
row,Binder,ELISA OD 450 nm [OD 450 nm]
1,B3,0.12
2,B6,0.1
3,B7,0.1
4,B4,0.05
5,B8,0.12
6,B5,0.05
7,B2,0.1
8,B9,0.09

# Molecular target: SARS-CoV Spike trimer (Table A) (SARS-CoV, UniProt P59594 14-1190)
# Experiment: ELISA, purified IgG
row,Binder,ELISA OD 450 nm [OD 450 nm]
1,B1,0.21
2,B2,4.1
3,B9,3.6

# Molecular target: T4, SARS-CoV-2 RBD (Table A) (SARS-CoV-2, UniProt P0DTC2 319-541)
# T4 construct: domain: RBD
# Experiment: ELISA, purified IgG
row,Binder,ELISA OD 450 nm [OD 450 nm]
1,B1,3.7
2,B2,4.3
3,B9,3.56

# Molecular target: T2, SARS-CoV-2 spike (S) glycoprotein on …
# Experiment: cell-based or functional assay
# Remark: another data set of the same source
Binder,"Nano-luciferase virus reduction test, SARS-CoV-2, IC50 [µg/mL]","SARS-CoV-2 focus reduction test, IC50 [µg/mL]"
B3,< 0.2,0.29
B6,–,0.045
B7,–,0.089
B4,< 0.4,0.185
B8,–,0.014
B5,< 0.1,0.029
B1,–,0.031
B2,< 0.05,0.151
B9,–,0.084
